From the supplement of paper PMC10724198
± gives the standard deviation of the averaged measurements.

These sequences were tested on Saccharomyces cerevisiae (assay: protein stability index of tFT-peptide fusion (C-terminal peptide) (PSI (0-1 scale)); higher = more stable (slower turnover)). Settings: genetic background: wild type; temperature: 30 C.
Experimental: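 Multiplexed protein stability (MPS) profiling in S. cerevisiae. Random 12-aa peptides (tFT-X12 library) are fused to the C-terminus of a sfGFP-mCherry tandem fluorescent timer, after mCherry and a GGGS linker. Cells are FACS-sorted into 8 mCherry/sfGFP bins and deep-sequenced. The protein stability index (PSI) is the read-weighted bin average, scaled from 0 (unstable) to 1 (stable). Only peptides with >10 reads are reported; cells were grown at 30 °C in SC-His with glucose.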
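Note: PSI is a weighted mean of sequencing reads over stability bins, variants kept only with over 10 reads, mCherry proximal and sfGFP distal, peptide attached via GGGS linker.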

In order of falling protein stability index:
1. GDPADGACGPTR  0.8 ± 0.062
2. GESAWWRSFGDV  0.791 ± 0.11
3. GGGDFDTLWDSR  0.789 ± 0.03
4. GDVPHRIEGEFL  0.788 ± 0.038
5. GEARVGGRWWSK  0.7722 ± 0.0071
6. GACCRHERIREE  0.761 ± 0.084
7. GDYITIGGGLIW  0.759 ± 0.017
8. GEKKTNHEPGAS  0.759 ± 0.06
9. GAGWGWGRKGSR  0.751 ± 0.089
10. GEKEARRKKVSM  0.749 ± 0.071
11. GAVYHGGMASVR  0.746 ± 0.054
12. GGGAGRGSRVWG  0.746 ± 0.076
13. GFTHAPTVPSPE  0.745 ± 0.017
14. GAVLSYIAPTPL  0.7404 ± 0.0055
15. GEIGVRGYQAEE  0.739 ± 0.029
16. GDHPPMETISRP  0.734 ± 0.095
17. GAWFTSSPVFGS  0.731 ± 0.034
18. GCGGAWGVWDGV  0.729 ± 0.072
19. GASGGGRGNLEV  0.727 ± 0.13
20. GGCEWWAWGRGG  0.727 ± 0.032
21. GANKQHLARKTE  0.7254 ± 0.0069
22. GDGAGGGFGLVV  0.724 ± 0.097
23. GGCRRGVQLFWD  0.7236 ± 0.0023
24. GCVGCNRWWPGW  0.721 ± 0.042
25. GECASVFSSGFF  0.72 ± 0.17
26. GAVVLAGWGVLK  0.718 ± 0.028
27. GDNRGLTRVGIE  0.718 ± 0.053
28. GEVMLRYQRISF  0.713 ± 0.018
29. GDRNNLRCWNAS  0.712 ± 0.11
30. GEGTQGVSIGPR  0.711 ± 0.015
31. GCGLVGVVTGRD  0.71 ± 0.14
32. GGFNARVSPTRL  0.709 ± 0.1
33. GCIELTGHLGSF  0.7059 ± 0.0036
34. FYRPGNVLDGVF  0.705 ± 0.075
35. GAGEGAQEDPAS  0.705 ± 0.013
36. GEDRLSPVGWDR  0.702 ± 0.035
37. GGCCLWVGFLGG  0.7016 ± 0.0021
38. GARGGEGVSGGA  0.701 ± 0.012
39. GERHTGTLRRPD  0.701 ± 0.065
40. GAHATVPSMVTL  0.698 ± 0.092
41. GEVGTVEGGATG  0.69596 ± 7e-05
42. GGGCARRRGGRV  0.6958 ± 0.0049
43. GARWGWGRKGSR  0.692 ± 0.072
44. GGFGGAWRGWAP  0.692 ± 0.016
45. GAENPRRLRART  0.691 ± 0.0079
46. GGAPRSSGRAGE  0.691 ± 0.028
47. GFEWWCQSVSVG  0.688 ± 0.018
48. GFTLCPVSLGYF  0.688 ± 0.017
49. GCFARSEKLSGL  0.687 ± 0.1
50. GCLWRGARALGP  0.687 ± 0.075
51. GAPSHVTPLPQI  0.686 ± 0.047
52. GAARTPGRARTL  0.685 ± 0.049
53. GARPTKCCSYGT  0.683 ± 0.011
54. GEGRGRTETEMK  0.682 ± 0.033
55. GDKQKKNEKNKE  0.681 ± 0.048
56. GELLLVAGMHWL  0.681 ± 0.023
57. GALVGWAMALGW  0.679 ± 0.033
58. GFISVGVYPVVR  0.677 ± 0.0081
59. GGFLATAGLSVT  0.673 ± 0.056
60. GDVLLLGGAGER  0.671 ± 0.07
61. GDRSKECAMKNG  0.67 ± 0.013
62. GEGNRVPNPSRP  0.669 ± 0.022
63. GGAGGTGVRCGT  0.669 ± 0.017
64. GACGSTLPASSR  0.668 ± 0.058
65. GESRVGMRRGGR  0.667 ± 0.029
66. GETGRGRRPRSQ  0.667 ± 0.062
67. GCAGRHRWVGEW  0.6649 ± 0.0027
68. GERLGECGGGVG  0.6652 ± 0.0021
69. GGFRSVCGGVNW  0.665 ± 0.011
70. GADGARGVPGAG  0.662 ± 0.018
71. GCPRGGVGSRGV  0.659 ± 0.098
72. GGCVGVLGGGGF  0.659 ± 0.016
73. GGDRGHVTGEVG  0.657 ± 0.06
74. GCAITVKRLWFG  0.656 ± 0.076
75. GCVGIGFSPGGG  0.656 ± 0.014
76. GAMLAGRQGGGL  0.655 ± 0.0089
77. GGGAIFDRLLCL  0.6545 ± 0.0049
78. GGCIGAKSVGGG  0.652 ± 0.027
79. GGGARWGWGGRM  0.648 ± 0.033
80. GAGLPSGLRIGL  0.647 ± 0.025
81. GAVWGRLTGSAH  0.6469 ± 0.005
82. GDGNERPLGRRD  0.643 ± 0.052
83. GDIGAGMGVVGE  0.641 ± 0.0049
84. GARTPVPRHRVH  0.6396 ± 0.0011
85. GFIDGSTVRTCL  0.64 ± 0.054
86. GGGEGRGGVEYG  0.64 ± 0.037
87. GEAEGGEEYGEG  0.636 ± 0.017
88. GGAVAVRGGSAA  0.636 ± 0.035
89. GCGAVEGFGVGW  0.625 ± 0.03
90. GGEKEREEEDKE  0.625 ± 0.056
91. GFGWYVPESWSS  0.616 ± 0.043
92. GCRRYLFLFFGC  0.6 ± 0.047
93. GGGDRRRTARLS  0.578 ± 0.027
94. GCMGGYAFFSGG  0.571
95. GFLGVDLVYVVH  0.567 ± 0.033
96. GCCGQGLPWNPP  0.562 ± 0.0077
97. GADGYSCGLVIT  0.539 ± 0.11
98. GAVARFRERALS  0.525 ± 0.0098
